Measured values taken from US9994644B2, “mAB 2 anti-Met antibody” (Agency for Science, Technology and Research, priority 2013, dated 2018).
“Also recorded” adds a separate entry of the source.

How the values were obtained:
[1] = biological target: T1, native c-Met on live SNU-5 cells (Homo sapiens, UniProt P08581); assay: Temperature sensitivity of antibody binding by flow cytometry; conditions: live SNU-5, 10 μg/mL mAb, 1 hr
T1 construct: native c-Met expressed on the cell surface of SNU-5 cells; host or cells: SNU-5
Experimental: To determine if temperature affects the binding affinity of anti-α-chain monoclonal antibody to native c-Met, mAb 2, 13, 11 and 18 were incubated with live SNU-5 cells at 4° C. or 37° C. Binding of monoclonal antibody to native c-Met expressed on the cell surface of live SNU-5 cells was detected using anti-mouse secondary antibody conjugated with Alexa Fluor®488 dye and analysed by flow cytometry. Antibody binding, which correlates with fluorescence intensity, was compared at the different temperatures. […] It is plausible that the reduction of antibody binding is due to the unavailability of antibody's epitope on native c-Met expressed on live SNU-5 cells. c-Met is a dynamic protein at normal physiological temperature and becomes rigid at low temperature, causing certain epitopes to be obscured.
10 μg/mL of anti-α-chain monoclonal antibody were incubated with live SNU-5 cells for 1 hr at 4° C. or 37° C. Cells were harvested and washed once in cold PBS. Antibody binding to live cells was determined by Alexa Fluor®488-conjugated anti-mouse secondary antibodies (Invitrogen #A11029). Cells were resuspended in 1% BSA/PBS and analysed by flow cytometry.

[2] = biological target: T1, native c-Met on live SNU-5 cells; assay: Flow cytometry of antibody binding to live SNU-5 cells; conditions: 1 μg/mL mAb, FITC secondary antibody
Experimental: Flow cytometry was used to determine if our monoclonal antibodies could bind to native c-Met on live cells. SNU-5 cells were incubated with 1 μg/mL of monoclonal antibody. Binding of anti-α-chain c-Met monoclonal antibodies to native c-Met expressed on the cell surface of SNU-5 cells was detected using anti-mouse secondary antibody conjugated with FITC dye. T47D, a human breast cancer cell line expressing low levels of c-Met, was used in this assay to determine if the antibodies bind non-specifically to the cell surface.
SNU-5 cells (1×10^6 cells) were washed once in cold PBS before blocking in 1% BSA/PBS. Cells were washed twice before incubating with anti-α-chain c-Met monoclonal antibodies. 1 μg/mL anti-α-chain monoclonal antibodies were used. Cells were incubated with goat anti-mouse IgG FITC-conjugated secondary antibodies (Invitrogen) and finally resuspended in 1% BSA/PBS. Flow cytometry was performed using Becton Dickinson (U.S.A.) FACScan. Cell Quest (Becton Dickinson) and FlowJo (Tree Star Inc., U.S.A.) software was used for data analysis.

[3] = test system: SNU-5 cells; assay: Annexin V staining (cell death); assay type: cell-based, human
[4] = test system: SNU-5 cells; assay: Cell growth by cell count (ADAM cell counter); assay type: cell-based, human; conditions: SNU-5, 10 μg/mL mAb, 72 hours post treatment
Experimental: In order to determine if these antibodies have any physiological effects on tumour cells, 10 μg/mL of mAb was added to SNU-5 cells. […] This indicates SU11274 mode of mechanism is by activation of caspase which in turn result in apoptosis of SNU-5 tumour cells.
Cells were seeded and treated with anti-α-chain c-Met monoclonal antibodies for 72 hrs. Cells were harvested and counted using the automated ADAM cell counter (Digital Bio, Korea).

T1 sequence (P08581 25-1390): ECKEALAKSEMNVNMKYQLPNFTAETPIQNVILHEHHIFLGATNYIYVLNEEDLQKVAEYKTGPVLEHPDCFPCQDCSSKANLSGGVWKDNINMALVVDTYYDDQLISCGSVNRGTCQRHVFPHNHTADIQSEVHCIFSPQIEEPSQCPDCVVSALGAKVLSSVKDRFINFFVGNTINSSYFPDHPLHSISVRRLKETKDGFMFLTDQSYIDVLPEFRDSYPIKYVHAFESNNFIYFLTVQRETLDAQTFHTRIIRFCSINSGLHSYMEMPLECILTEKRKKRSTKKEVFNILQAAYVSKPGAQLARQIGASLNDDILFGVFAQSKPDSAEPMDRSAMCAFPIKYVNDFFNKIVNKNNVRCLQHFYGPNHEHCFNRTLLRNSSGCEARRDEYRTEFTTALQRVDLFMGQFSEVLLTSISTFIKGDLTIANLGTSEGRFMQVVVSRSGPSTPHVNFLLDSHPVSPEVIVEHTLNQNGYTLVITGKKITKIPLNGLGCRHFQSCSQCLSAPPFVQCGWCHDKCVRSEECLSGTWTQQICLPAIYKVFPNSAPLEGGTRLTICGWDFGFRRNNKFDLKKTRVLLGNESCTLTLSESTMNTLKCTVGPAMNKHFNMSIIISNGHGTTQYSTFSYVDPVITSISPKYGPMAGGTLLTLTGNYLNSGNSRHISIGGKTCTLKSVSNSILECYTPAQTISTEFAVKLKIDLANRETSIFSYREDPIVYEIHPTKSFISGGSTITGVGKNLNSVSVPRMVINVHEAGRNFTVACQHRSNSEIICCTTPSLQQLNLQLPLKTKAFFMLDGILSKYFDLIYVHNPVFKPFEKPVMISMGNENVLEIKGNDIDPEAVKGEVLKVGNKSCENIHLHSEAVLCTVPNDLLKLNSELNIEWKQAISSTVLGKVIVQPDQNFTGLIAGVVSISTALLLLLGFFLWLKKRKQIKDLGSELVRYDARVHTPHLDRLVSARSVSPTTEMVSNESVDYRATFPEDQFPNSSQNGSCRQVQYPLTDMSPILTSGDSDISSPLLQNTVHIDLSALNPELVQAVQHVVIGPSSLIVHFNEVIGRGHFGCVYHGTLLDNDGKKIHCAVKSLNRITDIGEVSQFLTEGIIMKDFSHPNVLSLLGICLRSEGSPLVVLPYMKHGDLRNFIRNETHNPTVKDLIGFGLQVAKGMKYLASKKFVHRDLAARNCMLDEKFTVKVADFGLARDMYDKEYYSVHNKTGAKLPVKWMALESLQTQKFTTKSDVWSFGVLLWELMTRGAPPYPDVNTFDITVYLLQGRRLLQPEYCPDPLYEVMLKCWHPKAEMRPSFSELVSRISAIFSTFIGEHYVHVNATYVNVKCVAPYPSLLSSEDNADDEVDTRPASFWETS

B1: mAb 2: murine bivalent anti-α-chain c-Met monoclonal antibody, IgG1, kappa; CDRs SEQ ID NO: 2-7; epitope IEE and CPDC (antibody, listed as Homo sapiens)
heavy: QVQLKESGGGLVQPGGSLTLSCATSGFTFTDHYMSWVRQPPGKALEWLAFIRNKAKGYTTEYNASVRGRFTISRDNSQNIVYLQMNTLRTEDSATYYCARDGVGIAYWGQTLVTVSAAKTTPPSVYPLAP
light: SIVMTQSPLSLPVSLGDQASISCRSSQSLENINGNTYKNWYFQKPGQSPQLLIYRVSNRVSGVLDRFSGSGSGTDFTLKITRVEAEDLGVYFCLQVTHVPWTFGGGTKLEIKRADAAPTKSIS
[1]
  change of antibody binding between 4° C. and 37° C.: most drastic peak shift; also recorded: temperature sensitive
[2]
  binding to native c-Met (fluorescence intensity): strongest fluorescence intensity; also recorded: strongest binding; also recorded: highest fluorescence staining; also recorded: high affinity and specificity; also recorded: strongly
[3]
  cell death (annexin V staining): do not cause cell death
[4]
  cell growth (cell count): strongest cell growth reduction; also recorded: reduction of SNU-5 cell growth; also recorded: most effective in reducing cell proliferation
